This note sets out measurements from publication PMC8069351, “Characterization of Two Unique Cold-Active Lipases Derived from a Novel Deep-Sea Cold Seep Bacterium” (Microorganisms, 2021).

Substrate in this data set: CCCCCCCCCCCCCCCC(=O)Oc1ccc([N+](=O)[O-])cc1
The data set is described as follows: purified protein. Type of data set: biochemical, Pseudomonas sp. gcc21. As to conditions: 50 mM Tris-HCl pH 8.0, 4 °C, substrate 0.2-1.2 mM, text b44 swaps the two lipases' Km.

B1: Lipase 2 (Pseudomonas sp. gcc21) (protein)
chain: MNSPLLKLSTLTLGLVFAAGAYAFNPGNPGGPSNPGGDQPVESGFPSVGNFEASGSFATTNASEGPSCTIYRPRTLGENDLKHPIILWGNGTGTSPSGYSALLNHWASHGFVVAAANTTNAGSGAEMLACLDYLAEQNGRGSGTYAGKLNLDAVGSSGHSQGGGGSIMAGQDSRITATAPFQPYTLGLGHRRASQSNQNGPMFLMTGSADTLASSEANGRPVFNNANVPVFWGELQGASHFVPAFNGGGYRGPSTAWYRYHLMGDQNAESTFYGADCKLCTSSEWKVQKKGIQ
Regarding B1, the Km – broadly, the substrate concentration at which the rate is half of its maximum – was determined as 20 µM; the kcat (in general, the maximal rate divided by the concentration of active sites) is 2.7 s⁻¹; the kcat/Km (in general, the turnover number divided by the Michaelis constant) worked out at 140000 M⁻¹ s⁻¹.
